The target in test [1] is HVEM(200t), soluble herpesvirus entry mediator (UniProt Q92956). Briefly: SPR. (Surface plasmon resonance follows binding to a sensor surface in real time, without labels.)
Test [2] has as its target T1, nectin-1(346t), soluble nectin-1 (UniProt Q15223 31-346).
T1 sequence (looked up): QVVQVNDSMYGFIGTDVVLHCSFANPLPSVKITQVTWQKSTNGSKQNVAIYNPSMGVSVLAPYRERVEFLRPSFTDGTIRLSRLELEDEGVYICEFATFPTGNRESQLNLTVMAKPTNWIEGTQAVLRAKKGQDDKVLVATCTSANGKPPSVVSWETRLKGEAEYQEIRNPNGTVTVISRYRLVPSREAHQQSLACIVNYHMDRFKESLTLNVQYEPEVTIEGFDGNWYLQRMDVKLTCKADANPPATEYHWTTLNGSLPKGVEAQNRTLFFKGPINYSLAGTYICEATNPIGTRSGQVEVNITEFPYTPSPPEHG
The test is described as follows: SPR.

Take “gD(3C-38C)306t (from UniProt Q69091 26-331) (domain or fragment)”: in test [1], the Kd is 2390 nM.

B1: gD(23-285t) (domain or fragment)
chain: PVLDQLTDPPGVRRVYHIQAGLPDPFQPPSLPITVYYAVLERACRSVLLNAPSEAPQIVRGASEDVRKQPYNLTIAWFRMGGNCAIPITVMEYTECSYNKSLGACPIRTQPRWNYYDSFSAVSEDNLGFLMHAPAFETAGTYLRLVKINDWTEITQFILEHRAKGSCKYALPLRIPPSACLSPQAYQQGVTVDSIGMLPRFIPENQRTVAVYSLKIAGWHGPKAPYTSTLLPPELSETPNATQPELAPEDPEDSALLEDPVGT
B1 registered a Kd in test [2] of 65.7 nM.

B2: gD(306t), soluble ectodomain of HSV-1 glycoprotein D (domain or fragment)
chain: KYALADASLKMADPNRFRGKDLPVLDQLTDPPGVRRVYHIQAGLPDPFQPPSLPITVYYAVLERACRSVLLNAPSEAPQIVRGASEDVRKQPYNLTIAWFRMGGNCAIPITVMEYTECSYNKSLGACPIRTQPRWNYYDSFSAVSEDNLGFLMHAPAFETAGTYLRLVKINDWTEITQFILEHRAKGSCKYALPLRIPPSACLSPQAYQQGVTVDSIGMLPRFIPENQRTVAVYSLKIAGWHGPKAPYTSTLLPPELSETPNATQPELAPEDPEDSALLEDPVGTVAPQIPPNWHIPSIQDAATPY
Consider B2, for which binding in test [2] was put at a Kd of 1740 nM.

B3: gD(285t) (domain or fragment)
chain: KYALADASLKMADPNRFRGKDLPVLDQLTDPPGVRRVYHIQAGLPDPFQPPSLPITVYYAVLERACRSVLLNAPSEAPQIVRGASEDVRKQPYNLTIAWFRMGGNCAIPITVMEYTECSYNKSLGACPIRTQPRWNYYDSFSAVSEDNLGFLMHAPAFETAGTYLRLVKINDWTEITQFILEHRAKGSCKYALPLRIPPSACLSPQAYQQGVTVDSIGMLPRFIPENQRTVAVYSLKIAGWHGPKAPYTSTLLPPELSETPNATQPELAPEDPEDSALLEDPVGT
Turning to B3, the Kd in test [2] is 71.3 nM.

As a reminder, the Kd is the free concentration of one partner at which half of the binding sites on the other are occupied at equilibrium, for simple one-to-one binding. High values mean a looser complex, low ones a tighter complex.
